The values below come from the supplement of paper PMC9112550, “Optimization of the antimicrobial peptide Bac7 by deep mutational scanning” (BMC Biology, 2022).
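Note: peptides expressed intracellularly from a pBAD plasmid library in pooled LB shake-flask culture, induced with 0.3% L-arabinose, DNA abundance read by NGS, three biological replicates, DESeq2 with apeglm shrinkage.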

The series concerns Escherichia coli TOP10. Put plainly: shrunken log2 fold change of peptide-encoding DNA abundance (4.5 h post-induction vs induction); higher = less antimicrobial activity (less host growth inhibition). Conditions: time post-induction: 4.5 h; library: site-saturation at positions 5, 18, 19, 20.
On to RRIRVRPPRLPRPRPRPDYWPRP, for which the “shrunken log2 fold change” value was -0.449.
RRIRWRPPRLPRPRPRPNCPPRP: the “shrunken log2 fold change” value is -0.125.
For the sequence RRIRVRPPRLPRPRPRPYCLPRP, the “shrunken log2 fold change” value is -0.564.
Take RRIRERPPRLPRPRPRPKTSPRP: the “shrunken log2 fold change” value was -0.102.
Next, RRIRQRPPRLPRPRPRPTHMPRP: 0.0516; RRIRYRPPRLPRPRPRPECDPRP: -0.235; RRIRPRPPRLPRPRPRPPMCPRP: 0.0827.
For RRIRVRPPRLPRPRPRPGADPRP, the “shrunken log2 fold change” value is 0.163.
For the sequence RRIRCRPPRLPRPRPRPEWCPRP, the “shrunken log2 fold change” value came out at 0.145.
Regarding RRIRDRPPRLPRPRPRPPVTPRP, the “shrunken log2 fold change” value is -0.0696.
RRIRSRPPRLPRPRPRPWVVPRP: the “shrunken log2 fold change” value is -0.00703.
On to RRIRDRPPRLPRPRPRPFYCPRP, for which the “shrunken log2 fold change” value was -0.0803.
Take RRIRHRPPRLPRPRPRPLCIPRP: the “shrunken log2 fold change” value is -0.165.
For the sequence RRIRLRPPRLPRPRPRPIDMPRP, the “shrunken log2 fold change” value was -0.184.
In the case of RRIRNRPPRLPRPRPRPTMRPRP it was 0.746.
Turning to RRIRPRPPRLPRPRPRPFDIPRP, the “shrunken log2 fold change” value was -0.395.
On to RRIRKRPPRLPRPRPRPSLDPRP, for which the “shrunken log2 fold change” value stood at 0.183.
In the case of RRIRFRPPRLPRPRPRPGGDPRP it was 0.37; in that of RRIRMRPPRLPRPRPRPDKFPRP, 0.194.
On to RRIRVRPPRLPRPRPRPSLPPRP, for which the “shrunken log2 fold change” value is -0.226.
In the case of RRIRQRPPRLPRPRPRPFNCPRP it was -0.0275; in that of RRIRERPPRLPRPRPRPGNGPRP, -0.0693; in that of RRIRMRPPRLPRPRPRPVGWPRP, 1.37.
For RRIRDRPPRLPRPRPRPTYDPRP, the “shrunken log2 fold change” value was -0.208.
As to RRIRHRPPRLPRPRPRPYRLPRP, the “shrunken log2 fold change” value was -0.302.
In the case of RRIRSRPPRLPRPRPRPFARPRP it was -0.172.
Take RRIRMRPPRLPRPRPRPHWHPRP: the “shrunken log2 fold change” value worked out at 0.0139.
As for RRIRCRPPRLPRPRPRPHCNPRP, the “shrunken log2 fold change” value is -0.395.
For RRIRKRPPRLPRPRPRPVHCPRP, the “shrunken log2 fold change” value amounted to 0.0295.
Consider RRIRHRPPRLPRPRPRPWPKPRP, for which the “shrunken log2 fold change” value is 0.015.
In the case of RRIRYRPPRLPRPRPRPVGIPRP it was 0.177.
Regarding RRIRSRPPRLPRPRPRPNFEPRP, the “shrunken log2 fold change” value is -0.068.
For the sequence RRIRVRPPRLPRPRPRPMTCPRP, the “shrunken log2 fold change” value was -0.141.
As for RRIRNRPPRLPRPRPRPQLMPRP, the “shrunken log2 fold change” value was -0.0332.
For the sequence RRIRERPPRLPRPRPRPDFVPRP, the “shrunken log2 fold change” value is 0.105.
In the case of RRIRYRPPRLPRPRPRPQPYPRP it was -0.649; in that of RRIRKRPPRLPRPRPRPIVIPRP, -0.0175.
Consider RRIRARPPRLPRPRPRPTRQPRP, for which the “shrunken log2 fold change” value was 0.982.
For the sequence RRIRARPPRLPRPRPRPLDTPRP, the “shrunken log2 fold change” value is 0.39.
For RRIRKRPPRLPRPRPRPERAPRP, the “shrunken log2 fold change” value is 0.892.
As for RRIRCRPPRLPRPRPRPWAKPRP, the “shrunken log2 fold change” value is -0.234.
RRIRMRPPRLPRPRPRPGEVPRP: the “shrunken log2 fold change” value was determined as 0.884.
RRIRDRPPRLPRPRPRPEKGPRP: the “shrunken log2 fold change” value was determined as 0.71.
In the case of RRIRHRPPRLPRPRPRPNNWPRP, the “shrunken log2 fold change” value is -0.269.
As to RRIRCRPPRLPRPRPRPEYKPRP, the “shrunken log2 fold change” value is -0.415.
In the case of RRIRNRPPRLPRPRPRPWSIPRP, the “shrunken log2 fold change” value is -0.16.
Regarding RRIRKRPPRLPRPRPRPCKIPRP, the “shrunken log2 fold change” value was -0.248.
As to RRIRARPPRLPRPRPRPKSAPRP, the “shrunken log2 fold change” value came out at 0.709.
As to RRIRHRPPRLPRPRPRPGPPPRP, the “shrunken log2 fold change” value is 0.228.
Next, RRIRIRPPRLPRPRPRPNWVPRP: -0.231; RRIRFRPPRLPRPRPRPNAVPRP: -0.0327.
Consider RRIRKRPPRLPRPRPRPPWVPRP, for which the “shrunken log2 fold change” value amounted to 0.221.
Next, RRIRSRPPRLPRPRPRPSMRPRP: 0.369.
RRIRMRPPRLPRPRPRPSFMPRP: the “shrunken log2 fold change” value worked out at 0.0821.
For the sequence RRIRIRPPRLPRPRPRPFIKPRP, the “shrunken log2 fold change” value is -0.913.
Next, RRIRPRPPRLPRPRPRPIPRPRP: 0.449; RRIRQRPPRLPRPRPRPDTNPRP: -0.413; RRIRHRPPRLPRPRPRPENLPRP: -0.00992.
As for RRIRPRPPRLPRPRPRPATCPRP, the “shrunken log2 fold change” value came to 1.55.
Take RRIRNRPPRLPRPRPRPFCLPRP: the “shrunken log2 fold change” value is -0.363.
On to RRIRDRPPRLPRPRPRPQDIPRP, for which the “shrunken log2 fold change” value is -0.00598.
On to RRIRTRPPRLPRPRPRPWFNPRP, for which the “shrunken log2 fold change” value is -0.471.
Next, RRIRPRPPRLPRPRPRPNDAPRP: -0.025; RRIRTRPPRLPRPRPRPNMIPRP: -0.277.
For the sequence RRIRFRPPRLPRPRPRPRHQPRP, the “shrunken log2 fold change” value came out at 0.0747.
Turning to RRIRNRPPRLPRPRPRPEWPPRP, the “shrunken log2 fold change” value was found to be 0.178.
Next, RRIRGRPPRLPRPRPRPENIPRP: 0.204; RRIRKRPPRLPRPRPRPCQYPRP: -0.26.
Turning to RRIRYRPPRLPRPRPRPFAYPRP, the “shrunken log2 fold change” value is -0.00131.
As for RRIRDRPPRLPRPRPRPRYGPRP, the “shrunken log2 fold change” value was -0.0472.
In the case of RRIRCRPPRLPRPRPRPCSEPRP it was -0.495.
In the case of RRIRKRPPRLPRPRPRPGHCPRP it was 0.00694; in that of RRIRIRPPRLPRPRPRPPNFPRP, -0.108; in that of RRIRPRPPRLPRPRPRPYDYPRP, -0.355.
In the case of RRIRQRPPRLPRPRPRPHLQPRP it was -0.0325; in that of RRIRHRPPRLPRPRPRPQPNPRP, -0.168.
As for RRIRERPPRLPRPRPRPQLIPRP, the “shrunken log2 fold change” value was -0.759.
Next, RRIRLRPPRLPRPRPRPVRPPRP: -0.0457; RRIRGRPPRLPRPRPRPFPEPRP: 0.56; RRIRARPPRLPRPRPRPCTAPRP: -0.147.
Turning to RRIRMRPPRLPRPRPRPPACPRP, the “shrunken log2 fold change” value was 1.22.
Consider RRIRARPPRLPRPRPRPRDLPRP, for which the “shrunken log2 fold change” value was -0.162.
Turning to RRIRIRPPRLPRPRPRPYKVPRP, the “shrunken log2 fold change” value was -0.385.
Turning to RRIRERPPRLPRPRPRPLKDPRP, the “shrunken log2 fold change” value is -0.0646.
On to RRIRKRPPRLPRPRPRPSTCPRP, for which the “shrunken log2 fold change” value was -0.0517.
As for RRIRQRPPRLPRPRPRPAKGPRP, the “shrunken log2 fold change” value is 0.01.
With RRIRPRPPRLPRPRPRPMVKPRP, the “shrunken log2 fold change” value was -0.154.
In the case of RRIRARPPRLPRPRPRPHIDPRP it was 0.205.
With RRIRKRPPRLPRPRPRPILSPRP, the “shrunken log2 fold change” value turned out to be 0.00626.
Turning to RRIRQRPPRLPRPRPRPHFTPRP, the “shrunken log2 fold change” value was -0.217.
In the case of RRIRMRPPRLPRPRPRPPMMPRP it was 0.609; in that of RRIRNRPPRLPRPRPRPEEWPRP, 0.108; in that of RRIRFRPPRLPRPRPRPPVIPRP, 0.0684.
On to RRIRYRPPRLPRPRPRPWPQPRP, for which the “shrunken log2 fold change” value was 0.0526.
Turning to RRIRDRPPRLPRPRPRPIRRPRP, the “shrunken log2 fold change” value was -0.00194.
As to RRIRVRPPRLPRPRPRPMWHPRP, the “shrunken log2 fold change” value stood at 0.0166.
Next, RRIRWRPPRLPRPRPRPQTTPRP: 0.206; RRIRQRPPRLPRPRPRPFPAPRP: -0.0923.
Consider RRIRARPPRLPRPRPRPNNDPRP, for which the “shrunken log2 fold change” value is 0.026.
Next, RRIRDRPPRLPRPRPRPWWHPRP: 0.133.
RRIRVRPPRLPRPRPRPRVEPRP: the “shrunken log2 fold change” value came out at 0.558.
Next, RRIRYRPPRLPRPRPRPLESPRP: -0.0422.
For the sequence RRIRKRPPRLPRPRPRPTNKPRP, the “shrunken log2 fold change” value was 0.14.
In the case of RRIRFRPPRLPRPRPRPDEKPRP it was -0.0935; in that of RRIRHRPPRLPRPRPRPTCAPRP, 0.242.
With RRIRARPPRLPRPRPRPKTFPRP, the “shrunken log2 fold change” value was -0.0543.
Take RRIRFRPPRLPRPRPRPAMQPRP: the “shrunken log2 fold change” value amounted to 0.109.
With RRIRFRPPRLPRPRPRPHNGPRP, the “shrunken log2 fold change” value was -0.0493.
On to RRIRFRPPRLPRPRPRPIKNPRP, for which the “shrunken log2 fold change” value is -0.514.
For RRIRCRPPRLPRPRPRPAASPRP, the “shrunken log2 fold change” value is 0.246.
As for RRIRPRPPRLPRPRPRPWRQPRP, the “shrunken log2 fold change” value worked out at 0.0206.
For the sequence RRIRDRPPRLPRPRPRPCFSPRP, the “shrunken log2 fold change” value was -0.0275.
As to RRIRMRPPRLPRPRPRPFLDPRP, the “shrunken log2 fold change” value was -0.198.
Take RRIRHRPPRLPRPRPRPAIHPRP: the “shrunken log2 fold change” value was -0.303.
In the case of RRIRTRPPRLPRPRPRPKQSPRP it was 0.113; in that of RRIRRRPPRLPRPRPRPLVMPRP, 0.164; in that of RRIRKRPPRLPRPRPRPTKSPRP, 2.1.
Next, RRIRHRPPRLPRPRPRPVTNPRP: -0.222; RRIRSRPPRLPRPRPRPELYPRP: -0.00809.
For the sequence RRIRFRPPRLPRPRPRPPFPPRP, the “shrunken log2 fold change” value turned out to be 0.454.
With RRIRHRPPRLPRPRPRPNVEPRP, the “shrunken log2 fold change” value is -0.063.
RRIRQRPPRLPRPRPRPKTMPRP: the “shrunken log2 fold change” value was -0.0635.
In the case of RRIRSRPPRLPRPRPRPSAKPRP, the “shrunken log2 fold change” value was determined as 2.05.
For RRIRKRPPRLPRPRPRPQFIPRP, the “shrunken log2 fold change” value was -0.0823.
Next, RRIRPRPPRLPRPRPRPEIHPRP: -0.536.
